The experiment addresses CRM1 protein (chromosome region maintenance 1). Kind of experiment: co-immunoprecipitation (IP FOXO1, WB CRM1), band quantification. The note with it: chicken granulosa cells, with 740-Y-P; n = 3; parent: est. 1.9; read off a plot.

Regarding “chicken forkhead box O1 (FOXO1) wild-type (from UniProt A0A8V0XGP1) S311A”, the response amounted to 2.
For the substance “chicken forkhead box O1 (FOXO1) wild-type (from UniProt A0A8V0XGP1) S248A”, the response came to 2.

(Values after paper PMC12691273.)
